Laboratory results reported in patent US20220259315A1 (MABQUEST, published 2022).
Residue numbers refer to the chain shown, from its start.

T1: monkey Fc-PD-1 protein (monkey, UniProt Q15116 25-170 (human entry))
T1 construct: not shown: Fc part not described
T1 chain: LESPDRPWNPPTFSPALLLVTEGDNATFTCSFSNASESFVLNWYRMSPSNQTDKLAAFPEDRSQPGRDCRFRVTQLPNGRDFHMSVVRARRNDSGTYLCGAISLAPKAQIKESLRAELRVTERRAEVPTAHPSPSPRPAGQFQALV

T2: PD-1 M14
T2 PD-1 mutant: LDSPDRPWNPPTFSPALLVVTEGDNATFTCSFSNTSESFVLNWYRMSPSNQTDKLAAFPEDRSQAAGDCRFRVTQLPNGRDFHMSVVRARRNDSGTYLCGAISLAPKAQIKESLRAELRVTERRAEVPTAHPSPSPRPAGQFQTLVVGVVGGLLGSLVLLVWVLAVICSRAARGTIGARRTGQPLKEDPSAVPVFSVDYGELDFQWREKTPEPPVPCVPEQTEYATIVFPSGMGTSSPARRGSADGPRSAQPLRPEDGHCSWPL

B1: 137F2 (antibody, V domains shown)
VH: QVQLQQPGAELVRPGTSVKMSCKAAGYTFTNYWIGWIKQRPGHGLEWIGDIYPGGGYTNYNEKFKGKATLTADTSSSTAYMQVSSLTSEDTGIYYCARGYDFVLDRWGQGTSVTVSS
VL: DIVMSQSPSSLAVSTGEKVTMTCKSSQSLFNSETQKNYLAWYQQKPGQPPKLLIFWASTRESGVPDRFLGSGSGTDFTLTISSVQAEDLAVYYCKQSYTLRTFGGGTKLEIK
notes: also called mouse 137F2A11
B2: A35775 (Fab, V domains shown)
VH: EVQLVQSGAEVKKPGESLKISCKGSGYSFTNFYIHWVRQAPGQRLEWMGSIYPNYGDTAYNQKFKDRFVFSLDTSVSTAYLQISSLKAEDTAVYYCARGYSYAMDYWGQGTTVTVSS
VL: DIQMTQSPSSVSASVGDRVTITCSASQGISGDLNWYQQKPGQAPRLLIYHTSSLHSGVPSRFSGSGSGTDFTLTISSLQPEDFATYYCQYYSKDLLTFGGGTKLEIK
notes: humanized Fab clone of 135C12; also called humanized antibody A35775
B3: A36443 (Fab, V domains shown)
VH: EVQLVQSGAEVKKPGATVKISCKVSGYTFTNFYIHWVRQARGQRLEWIGSIYPNYGDTAYNQKFKDRVTITADKSTSTAYMELSSLRSEDTAVYYCARGYSYAMDYWGQGTTVTVSS
VL: B2 VL with D70E, S77R, Q79E, T85V
notes: humanized Fab clone of 135C12; also called humanized antibody A36443
B4: A35789 (Fab, V domains shown)
VH: B3 VH with A16E, T17S, V18L, V24G, T28S, A40M, R41P, Q43K, R44G, I48M
VL: B2 VL with V58I, S60A, S77R, Q79E, T85V
notes: humanized Fab clone of 135C12; also called humanized antibody A35789
B5: A35774 (Fab, V domains shown)
VH: B2 VH
VL: B2 VL with Q42K, R45K
notes: humanized Fab clone of 135C12; also called humanized antibody A35774
B6: A35783 (Fab, V domains shown)
VH: B2 VH with P41R, M48I
VL: B2 VL with V11L, Q42K, A43T, R45K
notes: humanized Fab clone of 135C12; also called humanized antibody A35783
B7: A36437 (Fab, V domains shown)
VH: B2 VH with A40M, Q43K, R44G
VL: B2 VL with S10T, V11L, V58I, S60A, T85V
notes: humanized Fab clone of 135C12; also called humanized antibody A36437
B8: A35777 (Fab, V domains shown)
VH: B3 VH with R41P, Q43K, R44G, I48M
VL: B2 VL with S10T, V11L
notes: humanized Fab clone of 135C12; also called humanized antibody A35777
B9: A35796 (Fab, V domains shown)
VH: QMQLVQSGPEVKKPGTSVKVSCKASGFTFTNYWIGWVRQAPGQALEWMGDIYPGGGYTNYNEKFKGRVTITADKSTSTAYMELSSLRSEDTAVYYCARGYDFVLDRWGQGTTVTVSS
VL: DVVMTQSPAFLSVTPGEKVTITCKSSQSLFNSETQKNYLAWYQQKPGQPPKLLIYWASTRESGVPSRFSGSGSGTDFTLTISSLQPEDFATYYCKQSYTLRTFGGGTKLEIK
notes: humanized Fab clone of 137F2; also called humanized antibody A35796
B10: A35797 (Fab, V domains shown)
VH: EVQLVQSGAEVKKHGESLKISCKGSGYSFTNYWIGWVRQATGQGLEWMGDIYPGGGYTNYNEKFKGRVTITADKSTSTAYMELSSLRSEDTAVYYCARGYDFVLDRWGQGTTVTVSS
VL: B9 VL with V2I, V3Q, A9S, F10S, V13A, T14S, P15V, E17D, K18R
notes: humanized Fab clone of 137F2; also called humanized antibody A35797
B11: A35799 (Fab, V domains shown)
VH: B9 VH with P9A, P14T, T16S, F27Y, A40M, Q43K, A44G
VL: B9 VL
notes: humanized Fab clone of 137F2; also called humanized antibody A35799
B12: A35793 (Fab, V domains shown)
VH: B9 VH
VL: B9 VL with L79F, Q85E, P86A, F89A
notes: humanized Fab clone of 137F2; also called humanized antibody A35793
B13: A35795 (Fab, V domains shown)
VH: B9 VH with M2V, P9A, T16A, F27Y, A44G
VL: B9 VL with P49A, K51R
notes: humanized Fab clone of 137F2; also called humanized antibody A35795
B14: A35818 (Fab, V domains shown)
VH: B9 VH
VL: B9 VL with P49A, K51R, L79F, Q85E, P86A, F89A
notes: humanized Fab clone of 137F2; also called humanized antibody A35818
B15: A35805 (Fab, V domains shown)
VH: B9 VH with M2V, P9S, V11L, T16A, F27Y, Q43K, A44G
VL: B9 VL with L79F, Q85E, P86A, F89A
notes: humanized Fab clone of 137F2; also called humanized antibody A35805
B16: A36448 (Fab, V domains shown)
VH: B2 VH with A40M, Q43K, R44G
VL: B2 VL with S10T, V11L, Q42K, A43T, R45K
notes: humanized Fab clone of 135C12; also called humanized antibody A36448

Target: T1, monkey Fc-PD-1 protein
Assay: Biacore, monkey Fc-PD-1

Kd | koff | kon | Binder
2.22 nM | 0.000305 s⁻¹ | 138000 M⁻¹ s⁻¹ | B1

Target: T1, monkey Fc-PD-1 protein
Assay: Biacore, Fab, monkey Fc-PD-1

Kd | koff | kon | Binder
5.73 nM | 0.000347 s⁻¹ | 60500 M⁻¹ s⁻¹ | B2
6.16 nM | 0.000585 s⁻¹ | 94900 M⁻¹ s⁻¹ | B3
6.19 nM | 0.000413 s⁻¹ | 66700 M⁻¹ s⁻¹ | B4
2.79 nM | 0.000194 s⁻¹ | 69300 M⁻¹ s⁻¹ | B5
1.9 nM | 0.0008 s⁻¹ | 421000 M⁻¹ s⁻¹ | B6
6.07 nM | 0.000368 s⁻¹ | 60700 M⁻¹ s⁻¹ | B7
5 nM | 0.000575 s⁻¹ | 115000 M⁻¹ s⁻¹ | B8

Target: T1, monkey Fc-PD-1 protein
Assay: Biacore, Fab, monkey Fc-PD-1
Remark: another data set of the same source

Kd | koff | kon | Binder
1.03 nM | 9.81e-05 s⁻¹ | 95300 M⁻¹ s⁻¹ | B9
1.13 nM | 0.000106 s⁻¹ | 93700 M⁻¹ s⁻¹ | B10
1.88 nM | 0.000169 s⁻¹ | 89700 M⁻¹ s⁻¹ | B11
1.13 nM | 0.000105 s⁻¹ | 93200 M⁻¹ s⁻¹ | B12
1.64 nM | 0.000152 s⁻¹ | 92500 M⁻¹ s⁻¹ | B13
1.27 nM | 0.000116 s⁻¹ | 91400 M⁻¹ s⁻¹ | B14
1.08 nM | 9.49e-05 s⁻¹ | 88200 M⁻¹ s⁻¹ | B15

target: T3, recombinant human Fc-PD-1 protein (human, UniProt Q15116 25-170); assay: Biacore, Fab, human Fc-PD-1
T3 construct: may be the same protein as the PD-1 Fc fusion of the Luminex assays; also called recombinant human PD-1 in an Fc fusion construct; not shown: Fc part not described
T3 sequence (Q15116 25-170): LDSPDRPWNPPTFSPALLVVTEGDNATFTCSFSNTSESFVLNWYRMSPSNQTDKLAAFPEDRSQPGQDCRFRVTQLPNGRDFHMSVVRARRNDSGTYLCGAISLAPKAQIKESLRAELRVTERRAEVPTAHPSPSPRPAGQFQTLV

Kd | koff | kon | Binder
2.54 nM | 0.000203 s⁻¹ | 80200 M⁻¹ s⁻¹ | B2
3.02 nM | 0.000215 s⁻¹ | 71200 M⁻¹ s⁻¹ | B3
4.17 nM | 0.000293 s⁻¹ | 70100 M⁻¹ s⁻¹ | B4
2.61 nM | 0.000211 s⁻¹ | 80900 M⁻¹ s⁻¹ | B5
2.55 nM | 0.000196 s⁻¹ | 76800 M⁻¹ s⁻¹ | B6
4.46 nM | 0.000317 s⁻¹ | 71000 M⁻¹ s⁻¹ | B7
4.31 nM | 0.000386 s⁻¹ | 89600 M⁻¹ s⁻¹ | B16
5.13 nM | 0.000352 s⁻¹ | 68600 M⁻¹ s⁻¹ | B8

Target: T2, PD-1 M14
Assay: flow cytometry, HeLa cells transiently transfected with PD-1 M14, PE-labeled anti-mouse IgG secondary Ab

binding result | Binder
binds | B1

target: T3, recombinant human Fc-PD-1 protein; assay: Biacore, Fab, human Fc-PD-1; remark: another data set of the same source

Kd | koff | kon | Binder
1.18 nM | 0.000123 s⁻¹ | 104000 M⁻¹ s⁻¹ | B9
0.802 nM | 8.02e-05 s⁻¹ | 100000 M⁻¹ s⁻¹ | B10
0.734 nM | 7.43e-05 s⁻¹ | 101000 M⁻¹ s⁻¹ | B11
0.912 nM | 9.49e-05 s⁻¹ | 104000 M⁻¹ s⁻¹ | B12
0.797 nM | 8.24e-05 s⁻¹ | 103000 M⁻¹ s⁻¹ | B13
1.06 nM | 0.000104 s⁻¹ | 98800 M⁻¹ s⁻¹ | B14
0.937 nM | 8.78e-05 s⁻¹ | 93700 M⁻¹ s⁻¹ | B15
